Changes are numbered by the printed parent chain. Numbers in names are those of the source.
B1: G39D: 7β-HSDH from Collinsella aerofaciens with substitution G39D, produced as described in WO 2012/080504 (protein)
chain: MNLREKYGEWGLILGATEGVGKAFCEKIAAGGMNVVMVDRREEKLNVLAGEIRETYGVETKVVRADFSQPGAAETVFAATEGLDMGFMSYVACLHSFGKIQDTPWEKHEAMINVNVVTFLKCFHHYMRIFAAQDRGAVINVSSMTGISSSPWNGQYGAGKAFILKMTEAVACECEGTGVDVEVITLGTTLTPSLLSNLPGGPQGEAVMKIALTPEECVDEAFEKLGKELSVIAGQRNKDSVHDWKANHTEDEYIRYMGSFYRD
B2: DFK: 7β-HSDH mutant with amino acid substitutions G39D R40F R41K compared to the wild type sequence (protein)
chain: B1 chain with R40F, R41K
B3: DF: 7β-HSDH mutant with amino acid substitutions G39D R40F compared to the wild type sequence (protein)
chain: B1 chain with R40F
B4: DFKG: 7β-HSDH mutant with amino acid substitutions G39D R40F R41K K44G compared to the wild type sequence (protein)
chain: B1 chain with R40F, R41K, K44G
B5: G39D R40I: previously reported 7β-HSDH double mutant G39D R40I, reference, previously most active mutant (protein)
chain: B1 chain with R40I

Assays:
Type in all cases: biochemical
[1] = Enzyme kinetic study of 7β-HSDH mutants, DHCA kinetics with NADH as cofactor; details: 0.5 mM NADH; for vmax (maximal specific enzyme activity): substrate DHCA
Description: (§1) Enzyme activity determinations were performed at 30° C. in the microtiter plate photometer with a sample volume of 250 μL, in which the change in the NAD(P)H concentration (ε 340=6.22 mL μmol^−1 cm^−1) was monitored at a wavelength of λ=340 nm. Here, the activities were determined by linear regression in the part of the reaction proceeding linearly. For this, the sample to be tested was appropriately diluted with potassium phosphate buffer (50 mM, pH 8.0) and treated with substrate and cofactor. The final concentrations of substrate and cofactor were 10 mM DHCA and 100 μM NADPH for 7β-HSDH, 10 mM DHCA and 100 μM NADH for 3α-HSDH, and 200 mM glucose and 1000 μM NAD(P) for GDH.
The mutants created were assessed by means of enzyme kinetic studies. For the study of the DHCA kinetics, 0.5 mM NADH was used as the cofactor (FIG. 9), while for the study of the NADH kinetics, 10 mM DHCA was used as the substrate (FIG. 10). From the plots of the DHCA kinetics, the characteristic curve shapes of the Michaelis-Menten kinetics can be discerned for the 7β-HSDH mutants, and no substrate inhibition was observed. Accordingly, the classical Michaelis-Menten model (equation 1) was used for the evaluation of the kinetic parameters.
[formula] EAX: specific enzyme activity, U mg^−1=μmol min^−1 mg^−1 vmax: maximal specific enzyme activity, U mg^−1=μmol min^−1 mg^−1 cs: substrate or cofactor concentration, mol L^−1 Km: half-saturation concentration, mol L^−1

[2] = First activity assay of purified 7β-HSDH G39D with NADPH or NADH
Description: as §1, with “The final concentrations of substrate and cofactor were 10 mM DHCA and 100 μM NADPH for 7β-HSDH, 10 mM DHCA and 100 μM NADH for 3α-HSDH, and 200 mM glucose and 1000 μM NAD(P) for GDH.” left out
The G39D mutant of the 7β-HSDH was produced as described in WO 2012/080504. The protein was expressed with an N-terminal His tag and purified by IMAC.

[3] = Single-stage biotransformation of DHCA to 3,12-diketo-UDCA with purified NADH-dependent 7β-HSDH mutants; details: after 16 hrs; 0.2 mg mL^−1 7β-HSDH, 10 U mL^−1 GDH, 0.5 mM NAD, 50 mM DHCA, pH 8.0, 30° C.

Molecule	Km [1]	vmax (maximal specific enzyme activity) [1]	NADH activity [2]	NADPH activity ([2]; 10 mM DHCA, 0.5 mM NADPH and pH 8.0)	vmax (maximal specific enzyme activity) ([1]; listed as 7β-HSDH DFK)	vmax (maximal specific enzyme activity) ([1]; listed as 7β-HSDH DFKG)	conversion of DHCA to 3,12-diketo-UDCA [3]
B1	660 ± 120 µM	2.90 ± 0.16 U mg^−1	marked NADH activity	0.040±0.005 U mg^−1	–	–	–
B2	290 ± 50 µM	5.91 ± 0.23 U mg^−1	–	–	5.91±0.23 U mg^−1	–	–
B3	420 ± 60 µM	3.70 ± 0.13 U mg^−1	–	–	–	–	–
B4	380 ± 50 µM	5.72 ± 0.19 U mg^−1	–	–	–	5.72±0.19 U mg^−1	complete conversion
B5	920 ± 170 µM	4.64 ± 0.27 U mg^−1	–	–	–	–	–
